Consider 20 sequences from the DeepSol protein solubility set.

A short description of the series: soluble on expression in E. coli; label from the status in PepcDB or PDB records.
With “MGSDKIHHHHHHMSILYEERLDGALPDVDRTSVLMALREHVPGLEILHTDEEIIPYECDGLSAYRTRPLLVVLPKQMEQVTAILAVCHRLRVPVVTRGAGTGLSGGALPLEKGVLLVMARFKEILDINPVGRRARVQPGVRNLAISQAVAPHNLYYAPDPSSQIACSIGGNVAENAGGVHCLKYGLTVHNLLKIEVQTLDGEALTLGSDALDSPGFDLLALFTGSEGMLGVTTEVTVKLLPKPPVARVLLASFDSVEKAGLAVGDIIANGIIPGGLEMMDNLSIRAAEDFIHAGYPVDAEAILLCELDGVESDVQEDCERVNDILLKAGATDVRLAQDEAERVRFWAGRKNAFPAVGRISPDYYCMDGTIPRRALPGVLEGIARLSQQYDLRVANVFHAGDGNMHPLILFDANEPGEFARAEELGGKILELCVEVGGSISGEHGIGREKINQMCAQFNSDEITTFHAVKAAFDPDGLLNPGKNIPTLHRCAEFGAMHVHHGHLPFPELERF”, the “soluble on expression in E. coli” value is recorded as “not soluble”.

In the case of “MLQVCCYTSEGYKYAVGIDLVRFFDTVNHSFLLRILSRTINDGRVISLIHKYLTSGVMIGKHYEPSIEGTPQGAPLSPLLSNILLNELDKELERRGHCFVRYADDSMILCKSKRSAERVCSSITDFSFYFTKGKCRLCVHKTTKEKFKRKVKSLTRRSNSMGYAQRKEILWQTFRGWIGYFKYADMRSLLIPLDQWYRRHLRMCIWKCWKRVKTRFSNLQKCGIPKGKA”, the “soluble on expression in E. coli” value is given as “not soluble”. With “GMDVEIVEELSKMLAGRKAVTEEEIRRKAIRCALKIMGARLVGIDAELIEDVTCSLIDCPITLKSLHFSEKVKIGDVLFYHPHVIKPEKEDFEQAYFEYKQSKKFLDAFDIMREVTDRFFEGYEAEGRYMRKYTKDGRNYYAFFSTIDDTFEDVDIHLRMVDEVDGDYVVIVPTENELNPFLKFFKQYSEDAKRAGLKIWVVNPDEKTIDPFIGYPKDFRLLKGFKNPKAAALVSAYWRVTVTDLD” the entry was “soluble”; with “MEQLGSEPETYQIMKTIEKSIIENDNVDLEQYLLFWEHVCNVMCSWGTIFSFVVKDVTAKLEKLTQMRSSDPDSYRTIIGMATKESENGTIRNQKPNRSGTGHLMVLNRALEFVIDLLDGVFTSNDENVSTIARSSYDKHLSQLHSWPIRTAVAAALYTLPRKPEFLCRLRGDMPEDDDNQFHDIFNRDGRDIVRRVNKLVENFELTDYNPSA”, “not soluble”; with “MNRFLKHWRLSGRCEAFHGQIISYADDFVILSRGHAEDALTWTKAVMTKLGLTLNETKTSVKNARLESFDFLGYTLGPRHFRNGGRWYLGAAPSKKSVLRIKRKVSELLTPGNKGAWPEVQARLNRLLRGWSAYFSYGSLATAHQAVDRHVFDRVLAFLRRRHKTPGRGVRRFSDQIYGNPGVLVLNRVRKVSPTCALLEHHHHHH”, “not soluble”. In the case of “MSSQNDYQSNGRYDNIYSQIDSEAKMSFSVDVLANIAIELQRGIGHQDRFQRLITTLRQVLECDASALLRYDSRQFIPLAIDGLAKDVLGRRFALEGHPRLEAIARAGDVVRFPADSELPDPYDGLIPGQESLKVHACVGLPLFAGQNLIGALTLDGMQPDQFDVFSDEELRLIAALAAGALSNALLIEQLESQNMLPGDATPFEAVKQTQMIGLSPGMTQLKKEIEIVAASDLNVLISGETGTGKELVAKAIHEASPRAVNPLVYLNCAALPESVAESELFGHVKGAFTGAISNRSGKFEMADNGTLFLDEIGELSLALQAKLLRVLQYGDIQRVGDDRCLRVDVRVLAATNRDLREEVLAGRFRADLFHRLSVFPLSVPPLRERGDDVILLAGYFCEQCRLRQGLSRVVLSAGARNLLQHYSFPGNVRELEHAIHRAVVLARATRSGDEVILEAQHFAFPEVTLPTPEVAAVPVVKQNLREATEAFQRETIRQALAQNHHNWAACARMLETDVANLHRLAKRLGLKD”, the “soluble on expression in E. coli” value is on record as “not soluble”. The same measure for “MGAFFVGAIWLTAAEAFCPAPKGLLPATVLRVVDGDTLHLKDGRRLRMIGLNAPELAGKGRPAEPFAEAARQRLRQLVAQSGGRVGLLPGRERQDRYGRVLAHVYGVTGINFEARLIAEGLAYRIAVLPNVALASCQKAAENHARRAGLGLWRRSPVLKAQQIHRAGFALFEGRVSRVQRNRGGLWITLQGQVVLRIAPNVLRRFDRRLLSGLSGRRIEARGWVVDRSRQPGRQSAHPRWMLSVTDPSMLGLILEHHHHHH”: “not soluble”; for “MSLNSKDIAKIVGVSRSTVSRVINNYPDIPQATREKVLKAIKEYNYYPNASARRLAGMKSSTLGIFIIDIKDNEKPHHVIENNEDLLYGNSYFSPFINAFIDQSNKAQYHVLVSTIYSSDELWKIQSAFYEKRIDGAVIIGSSSIDYSKIFEIMDKDSITVAVDLDMEKENTGTVMSVNINNYGGVSDAIDYLVELGHKDIAVITGDLNKLSGKIRFESFKDALLRHGLPLNNDFIAYGDFTENSGYEGMKKILASGKKPTAVFTSNDTMAIGAYRAIKEYGLKIPEDISVMGFDNSYISQYMSPPLTTVNVSLPEIAKCSIELLLDSINNKEIKNRQKTVNVQIVKRNSCKKEGHHHHHH”: “soluble”. With “PLGSMPFHAEPLKPSDEIDMDLGHSVAAQKFKEIREVLEGNRYWARKVTSEEPEFMAEQVKGQAPNFLWIGCADSRVPEVTIMARKPGDVFVQRNVANQFKPEDDSSQALLNYAIMNVGVTHVMVVGHTGCGGCIAAFDQPLPTEENPGGTPLVRYLEPIIRLKHSLPEGSDVNDLIKENVKMAVKNVVNSPTIQGAWEQARKGEFREVFVHGWLYDLSTGNIVDLNVTQGPHPFVDDRVPRA” the entry was “soluble”; with “MSLVLNFVGTGTLTRFFLECLKDRYEIGYILSRSIDRARNLAEVYGGKAATLEKHPELNGVVFVIVPDRYIKTVANHLNLGDAVLVHCSGFLSSEIFKKSGRASIHPNFSFSSLEKALEMKDQIVFGLEGDERGLPIVKKIAEEISGKYFVIPSEKKKAYHLAAVIASNFPVALAYLSKRIYTLLGLDEPELLIHTLMKGVADNIKKMRVECSLTGPVKRGDWQVVEEERREYEKIFGNTVLYDEIVKLLREVAESERREAQEDEREGGSHHHHHH”, “soluble”.

“MAHHHHHHMKRVANAKHATYDMPPKGLRVRDMLEKTAQQNCNQRKRGKCRKFFFLWKMDKMGDTHLGGQANGRKNLLRSESATDEASLGGNPLKEKLKESPANWGKDKQEEQQSTDRLPLPKVGNKMPEKKPDWFHVPAPTGKKYNELKADLKKLKLHTVCEEAQCPNIGECWNIGTATIMLLGDTCTRGCKFCSIKTSSKPLPPDANEPFNTAKAICEWDINYVVLTSVDRDDLPDGGASHFAKTIELIKFSRPEILIECLVSDFQGNVDSIRKLANSGMEVYAHNIETVRRLQKFVRDRRANYEQSLWVLKTAKEINPLLYTKTSIMLGLGETKQEVLQAMADVRQNNIDVITFGQYLRPTKNHLNVVEYVSPQMFDYYKEEGMKMGFKYIASGPLVRSSYKAGEYFMKNLVEQRRGVKLHAEG”: the “soluble on expression in E. coli” value is listed as “not soluble”. Take “MSDHQDGMKLEDIERQFLDVAQREGGLEAIQPTTGPLENEENLKSSTGGGGGEDDNDRKKRKRSRSRDRDTRRRSRSRDRGERRGGGGGGDRDRSRSRERRRGGGGRDEPRRRGGDDEARSRREPEPQKPREPKKYRFWDVPPTGFETTTPMEYKNMQAAGQVPRGSVQSAVPVVGPSVTCQSRRLYVGNIPFGCNEEAMLDFFNQQMHLCGLAQAPGNPILLCQINLDKNFAFIEFRSIDETTAGMAFDGINFMGQQLKVRRPRDYQPSQNTFDMNSRMPVSTIVVDSANKIFIGGLPNYLTEDQVKELLCSFGPLKAFSLNVDSQGNSKGYAFAEYLDPTLTDQAIAGLNGMQLGDKQLVVQLACANQQRHNTNLPNSASAIAGIDLSQGAGRATEILCLMNMVTEDELKADDEYEEILEDVRDECSKYGIVRSLEIPRPYEDHPVPGVGKVFVEFASTSDCQRAQAALTGRKFANRTVVTSYYDVDKYHNRQF”: the “soluble on expression in E. coli” value is reported as “soluble”. The same measure for “DLREVLDFMLKDEVSKLRKLLVKIKTKKIAEVEYENVVKALKLFKDNYEINEYLMDENTKEFLIKRNILFLNPVEEILKPQSYLVWNAIKRVLQNINDF”: “soluble”; for “GPLGSMASATLGSSSSSASPAVAELCQNTPETFLEASKLLLTYADNILRNPSDEKYRSIRIGNTAFSTRLLPVRGAVECLFEMGFEEGETHLIFPKKASVEQLQKIRDLIAIERSSRLDGSSKK”: “soluble”; for “YRALFEHAIDGIFIMDAEGHYLDVNPAICSAIGYTRDEFLALDWGVLSRGVDSGWAAASLARIVGGEPLREERTVWTRNGDQLTVELSAHLLPDGKILGIARDVS”: “soluble”.

Consider “MGSDKIHHHHHHMRLPLNQRVAILLHEGTTGTIGKTGLALLRYSEAPIVAVIDRNCAGQSLREITGIYRYVPIVKSVEAALEYKPQVLVIGIAPKGGGIPDDYWIELKTALQAGMSLVNGLHTPLANIPDLNALLQPGQLIWDVRKEPANLDVASGAARTLPCRRVLTVGTDMAIGKMSTSLELHWAAKLRGWRSKFLATGQTGVMLEGDGVALDAVRVDFAAGAVEQMVMRYGKNYDILHIEGQGSLLHPGSTATLPLIRGSQPTQLVLVHRAGQTHNGNNPHVPIPPLPEVIRLYETVASGGGAFGTVPVVGIALNTAHLDEYAAKEAIAHTIAETGLPCTDVVRFGADVLLDAVMQN”, for which the “soluble on expression in E. coli” value is listed as “not soluble”. The same measure for “MGSDKIHHHHHHMPVSQPVSSQPPTANCYDLAVIGGGINGVGIAADAAGRGLKVFLCEKDDLAQHTSSASSKLIHGGLRYLEHYEFRLVREALAEREVLLAKAPHIVKPMRFVLPHRPHLRPAWMIRAGLFLYDHLGKRKRLGASRSLRFGPGYPLKPAITRGFEYADCAVDDARLVVLNAMAARELGAHIRTRTRCLRAERVEGLWQVELQHADGSLQTIHARALVNAAGPWVASFIKDDLKLDAPYGIRLIQGSHIIVPRLYEGEHAYILQNEDQRIVFCIPYLDRFTLIGTTDREYSGDPAAVAITEQETHYLLKVVNEHFNHQLSQADILHTYSGVRPLCNDESDNPSAVTRDYTLALSAEVGQAPLLSVFGGKLTTYRKLAESAMAELKPFFTQMRAPWTASAPLPGAEGMTTVQALIDAVLARCGWLPVDLAKRWVLTYGSRVWRLLDGVHGPEDLGQAIGAGLFTREVDYLLEEEWAEQTADIIWRRTKLGLSLTAQEQMALEAYLQQARKVRANSRAA”: “not soluble”; for “MGSDKIHHHHHHMTTDHPSAYCFFQDLAPRPPLDAAFDRDYLLYAIRGALRVSVAGESWLLPPSFAAWLPANTPISVDIDKPVTTCSVLARPGLCTGLPEKACVFQMSPMARQMIHYCKDWGPDAAHPAQAEGFFLALLHVCADLAVKSVDVKRPTATDPVLRKAIDITEAHLAQAITANEIARKVNLSERSMQRHFQMDVGMTWSQTLTQLRMIHAVALLAEGKLSIIQIAGYTGFQSLSAFNRAFRTFAATTPTKFRKALLD”: “not soluble”. Turning to “MAHHHHHHMPCNCRQGTGTHDHLQDGFARGGMFGVGSPLNAQVDVDLLQLWNSRNSVSEAARIFDPAKGDNDQPICSDADPELLLLIPLKEVCRIRSVSILGTNDDFAPSQVKLFCNPTGVVGFDSVRRLQHQEEIQLAQVSADDRIAYRLNPAKFSSAGCMGMLFEHSFGDDETHILRIELFGESTGRPVYQQTATNVVYEAMANPTDHNVGEELKKTFTIF”, the “soluble on expression in E. coli” value is reported as “soluble”. With “MKNVEEQAEREIALSDEMVLQFLQQNPDFFIRNARPVEQMRVPHPVRGTVSLVEWQLARQRNHITQLEEEITLLMEQAGANEVLFNRLLGLQTELASAESLTDMLDRLQRWARQLGLAGAAVRLFSDKWRIGAPSDFTHLGLNRSSFEPLRIQRFGQHNHYLGSLNGPELLLLLPQARQVGSVALSLMGNHHDLGVLIFSSRDSHHYQNGMGTVLLQQMAMMLPAMLARWVERVLEHHHHHH”, the “soluble on expression in E. coli” value is “not soluble”.
